Experimental data: US20120039865A1 (YALE UNIVERSITY, published 2012)

T1: mouse sortilin-1 (Sort1; GenBank Accession No. NM 019972) expressed in COS-7 cells (mouse, UniProt Q6PHU5 74-825)
T1 construct: cDNA clone from a mouse library, transfected into COS-7 cells; also called PGRN-R; PGRN receptor
T1 sequence: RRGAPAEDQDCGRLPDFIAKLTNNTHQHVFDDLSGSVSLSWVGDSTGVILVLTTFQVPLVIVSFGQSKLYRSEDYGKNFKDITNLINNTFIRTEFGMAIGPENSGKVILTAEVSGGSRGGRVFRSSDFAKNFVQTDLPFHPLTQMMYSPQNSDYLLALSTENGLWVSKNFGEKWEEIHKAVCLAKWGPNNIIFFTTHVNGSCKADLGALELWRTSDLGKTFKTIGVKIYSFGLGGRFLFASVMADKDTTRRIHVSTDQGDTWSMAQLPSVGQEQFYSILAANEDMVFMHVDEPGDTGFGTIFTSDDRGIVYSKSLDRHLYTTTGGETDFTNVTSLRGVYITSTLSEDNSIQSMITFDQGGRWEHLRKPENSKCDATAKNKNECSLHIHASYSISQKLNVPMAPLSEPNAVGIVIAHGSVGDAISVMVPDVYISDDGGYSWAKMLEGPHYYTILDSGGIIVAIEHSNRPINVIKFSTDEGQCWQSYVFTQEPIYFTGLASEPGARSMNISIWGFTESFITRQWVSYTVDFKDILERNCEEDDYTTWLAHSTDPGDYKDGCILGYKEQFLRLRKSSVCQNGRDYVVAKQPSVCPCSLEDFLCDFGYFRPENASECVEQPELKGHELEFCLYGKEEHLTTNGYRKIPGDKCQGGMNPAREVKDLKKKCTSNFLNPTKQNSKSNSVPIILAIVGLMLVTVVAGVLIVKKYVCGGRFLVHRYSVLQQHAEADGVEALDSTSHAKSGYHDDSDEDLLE

T2: rat sortilin (Sort1) on E18 rat cortical neurons (rat, UniProt O54861 74-825)
T2 construct: Native receptor on cultured rat neurons
T2 sequence: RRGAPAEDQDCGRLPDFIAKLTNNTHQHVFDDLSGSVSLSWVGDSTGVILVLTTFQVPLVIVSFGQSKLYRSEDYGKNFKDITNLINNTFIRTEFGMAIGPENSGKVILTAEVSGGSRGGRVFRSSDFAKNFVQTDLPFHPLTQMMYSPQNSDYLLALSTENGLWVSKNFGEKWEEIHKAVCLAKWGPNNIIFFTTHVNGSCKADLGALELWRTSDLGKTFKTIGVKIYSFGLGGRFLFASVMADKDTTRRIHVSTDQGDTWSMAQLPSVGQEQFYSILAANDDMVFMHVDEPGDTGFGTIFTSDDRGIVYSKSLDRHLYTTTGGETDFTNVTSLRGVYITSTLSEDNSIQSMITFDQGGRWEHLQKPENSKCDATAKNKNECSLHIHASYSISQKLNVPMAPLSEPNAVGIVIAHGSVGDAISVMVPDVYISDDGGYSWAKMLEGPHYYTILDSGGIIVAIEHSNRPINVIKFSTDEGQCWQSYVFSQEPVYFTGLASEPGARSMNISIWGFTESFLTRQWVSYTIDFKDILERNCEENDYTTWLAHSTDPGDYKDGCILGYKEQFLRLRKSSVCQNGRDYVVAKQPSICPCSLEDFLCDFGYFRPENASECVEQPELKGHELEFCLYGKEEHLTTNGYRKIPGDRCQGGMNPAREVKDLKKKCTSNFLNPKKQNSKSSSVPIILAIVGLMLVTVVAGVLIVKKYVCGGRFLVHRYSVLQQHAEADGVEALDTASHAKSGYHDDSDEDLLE

T3: mouse SorCS1 (GenBank Accession No. BC007486) expressed in COS-7 cells (mouse, UniProt Q9JLC4 34-1167)
T3 construct: whole, on cells
T3 sequence (looked up): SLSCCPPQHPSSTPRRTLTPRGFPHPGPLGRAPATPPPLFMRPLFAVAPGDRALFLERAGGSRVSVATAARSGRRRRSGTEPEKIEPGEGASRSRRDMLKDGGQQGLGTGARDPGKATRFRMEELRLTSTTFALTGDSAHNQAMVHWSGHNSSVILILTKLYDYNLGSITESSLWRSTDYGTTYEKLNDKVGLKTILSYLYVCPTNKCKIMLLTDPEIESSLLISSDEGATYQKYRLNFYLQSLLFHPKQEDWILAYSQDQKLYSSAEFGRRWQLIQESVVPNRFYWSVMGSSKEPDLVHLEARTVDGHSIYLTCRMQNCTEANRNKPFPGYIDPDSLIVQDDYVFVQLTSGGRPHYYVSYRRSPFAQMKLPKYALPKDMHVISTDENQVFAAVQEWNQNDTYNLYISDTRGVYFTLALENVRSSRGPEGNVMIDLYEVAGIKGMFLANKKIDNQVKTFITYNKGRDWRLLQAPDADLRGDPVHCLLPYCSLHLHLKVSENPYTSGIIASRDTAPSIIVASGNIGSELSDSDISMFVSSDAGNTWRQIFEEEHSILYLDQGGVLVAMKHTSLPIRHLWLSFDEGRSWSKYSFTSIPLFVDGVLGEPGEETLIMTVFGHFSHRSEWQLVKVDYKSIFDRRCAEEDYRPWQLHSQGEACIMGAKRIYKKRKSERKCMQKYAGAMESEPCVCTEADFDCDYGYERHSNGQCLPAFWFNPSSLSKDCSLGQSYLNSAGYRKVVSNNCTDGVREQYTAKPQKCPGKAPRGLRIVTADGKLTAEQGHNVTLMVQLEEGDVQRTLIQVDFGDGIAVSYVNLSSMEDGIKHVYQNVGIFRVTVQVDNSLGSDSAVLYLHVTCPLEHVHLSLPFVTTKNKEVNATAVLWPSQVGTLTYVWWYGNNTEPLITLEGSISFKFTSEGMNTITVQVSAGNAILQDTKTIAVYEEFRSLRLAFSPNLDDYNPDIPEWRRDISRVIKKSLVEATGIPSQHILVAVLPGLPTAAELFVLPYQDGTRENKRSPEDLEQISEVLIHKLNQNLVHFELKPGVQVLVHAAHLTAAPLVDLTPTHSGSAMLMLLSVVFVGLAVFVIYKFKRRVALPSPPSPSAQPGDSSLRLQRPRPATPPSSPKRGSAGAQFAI


Key:
[1] = target: T1, mouse sortilin-1 (Sort1; GenBank …); test: saturation binding of AP-tagged ligand to COS-7 cells transfected with sortilin (PGRN-R), bound AP read as optical density of the reaction product
Procedure: (§1) FIG. 2B is a graph depicting the saturation analysis of binding of AP-PGRN to COS-7 cells transfected with the PRGN-R, sortilin. The binding of AP-PGRN, measured by the optical density (OD units) of AP ligand bound, was determined as a function of ligand concentration (nM).
(§2) To determine the molecular nature of the neuronal binding site of PGRN, expression cloning experiments utilizing AP-PGRN as a tagged ligand were conducted. COS-7 (ATCC No. CRL-1651) cells were transfected with expression vectors containing mouse cDNAs using FUGENE® 6 according to manufacturer's specifications (Roche). An arrayed adult mouse brain cDNA library (OriGene) of 225,000 clones was screened in pools of 5,000 at a time, as well as a library consisting of 352 individual preparations of cDNAs encoding transmembrane proteins (GFC-transfection array panel, OriGene). […] In both cases, unlabeled 100 nM PGRN displaced binding (FIG. 2A, lower-right panel, and FIG. 3A, right panel).

[2] = target: T2, rat sortilin (Sort1) on E18 rat …; test: saturation binding of AP-PGRN to cultured cortical neurons (FIG. 1D); neuronal PGRN binding sites, identified by the filing as Sort1; cultured cortical neurons (FIG. 1D), species not stated
[3] = target: T3, mouse SorCS1 (GenBank Accession No. …); test: AP staining of transfected COS-7 cells
[4] = target: T4, human SorLA (GenBank Accession No. U60975) expressed in COS-7 cells (human, UniProt Q92673 82-2214); test: AP staining of transfected COS-7 cells
T4 construct: whole, on cells
T4 sequence (Q92673 82-2214, one chain of several): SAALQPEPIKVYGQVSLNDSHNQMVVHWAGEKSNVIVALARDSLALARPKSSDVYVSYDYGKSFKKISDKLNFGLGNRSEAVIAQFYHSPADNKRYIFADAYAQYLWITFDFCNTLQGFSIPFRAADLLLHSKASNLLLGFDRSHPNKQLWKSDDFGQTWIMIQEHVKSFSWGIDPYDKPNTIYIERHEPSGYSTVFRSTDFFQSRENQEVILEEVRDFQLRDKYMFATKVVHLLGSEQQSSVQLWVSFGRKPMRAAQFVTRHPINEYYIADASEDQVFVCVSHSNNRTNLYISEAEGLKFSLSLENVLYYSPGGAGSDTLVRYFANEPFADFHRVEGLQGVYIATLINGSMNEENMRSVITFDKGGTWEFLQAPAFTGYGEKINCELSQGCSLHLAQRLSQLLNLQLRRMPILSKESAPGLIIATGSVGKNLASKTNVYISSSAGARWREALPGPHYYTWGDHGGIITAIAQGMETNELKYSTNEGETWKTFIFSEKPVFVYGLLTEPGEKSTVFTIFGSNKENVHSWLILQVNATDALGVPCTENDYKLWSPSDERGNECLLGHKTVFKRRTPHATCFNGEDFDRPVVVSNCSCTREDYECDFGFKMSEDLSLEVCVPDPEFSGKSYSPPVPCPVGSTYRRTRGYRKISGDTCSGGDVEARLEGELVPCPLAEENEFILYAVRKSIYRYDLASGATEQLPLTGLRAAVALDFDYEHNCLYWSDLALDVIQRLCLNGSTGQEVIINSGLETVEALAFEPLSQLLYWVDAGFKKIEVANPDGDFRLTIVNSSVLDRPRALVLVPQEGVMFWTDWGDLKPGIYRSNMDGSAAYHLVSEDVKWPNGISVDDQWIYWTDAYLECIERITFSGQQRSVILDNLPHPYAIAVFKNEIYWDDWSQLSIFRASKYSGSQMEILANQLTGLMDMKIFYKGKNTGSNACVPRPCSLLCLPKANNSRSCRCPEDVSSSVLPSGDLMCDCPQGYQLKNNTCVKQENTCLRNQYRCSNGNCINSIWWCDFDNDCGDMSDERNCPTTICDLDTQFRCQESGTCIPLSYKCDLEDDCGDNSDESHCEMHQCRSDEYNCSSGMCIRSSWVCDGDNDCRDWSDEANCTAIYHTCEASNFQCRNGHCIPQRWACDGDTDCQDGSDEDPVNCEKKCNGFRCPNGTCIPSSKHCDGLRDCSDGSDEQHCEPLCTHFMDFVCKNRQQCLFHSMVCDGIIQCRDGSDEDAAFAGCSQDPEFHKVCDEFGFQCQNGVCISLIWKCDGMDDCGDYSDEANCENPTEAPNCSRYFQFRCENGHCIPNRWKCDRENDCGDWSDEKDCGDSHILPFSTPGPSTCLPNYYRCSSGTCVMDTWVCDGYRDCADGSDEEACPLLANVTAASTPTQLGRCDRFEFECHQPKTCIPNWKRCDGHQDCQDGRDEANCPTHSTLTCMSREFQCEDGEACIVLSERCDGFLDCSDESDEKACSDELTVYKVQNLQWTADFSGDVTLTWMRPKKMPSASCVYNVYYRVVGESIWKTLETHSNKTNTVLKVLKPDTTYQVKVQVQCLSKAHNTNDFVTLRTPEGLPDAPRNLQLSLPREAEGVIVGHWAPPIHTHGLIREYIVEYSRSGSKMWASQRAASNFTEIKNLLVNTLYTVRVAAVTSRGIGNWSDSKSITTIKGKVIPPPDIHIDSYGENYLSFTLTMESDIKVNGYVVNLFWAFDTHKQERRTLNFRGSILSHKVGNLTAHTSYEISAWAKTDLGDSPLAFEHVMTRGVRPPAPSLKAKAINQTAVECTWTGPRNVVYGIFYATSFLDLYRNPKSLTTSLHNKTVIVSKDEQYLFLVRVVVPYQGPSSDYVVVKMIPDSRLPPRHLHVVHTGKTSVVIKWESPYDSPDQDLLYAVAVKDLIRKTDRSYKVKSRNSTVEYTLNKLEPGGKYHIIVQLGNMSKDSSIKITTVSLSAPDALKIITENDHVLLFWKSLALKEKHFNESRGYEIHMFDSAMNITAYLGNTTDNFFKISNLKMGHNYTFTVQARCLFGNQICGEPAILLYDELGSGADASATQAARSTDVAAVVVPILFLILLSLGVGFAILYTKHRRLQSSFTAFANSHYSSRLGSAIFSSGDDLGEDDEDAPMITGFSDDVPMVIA

[5] = target: T1, mouse sortilin-1 (Sort1; GenBank …); test: saturation binding of AP-PGRN to Sort1-transfected COS-7 cells, bound AP activity (OD); Sort1-transfected COS-7 cells, FIG. 2B
Procedure: as §1, §2

[6] = target: T1, mouse sortilin-1 (Sort1; GenBank …); test: AP staining of transfected COS-7 cells
[7] = target: T2, rat sortilin (Sort1) on E18 rat …; test: AP staining of cultured E18 rat cortical neurons (the neuronal PGRN binding site is identified by the filing as Sort1)
Procedure: Rat (Sprague-Dawley) cortical neurons were isolated from E18 embryos and cultured in vitro for 3-21 days. Cultures were maintained in Neurobasal-A medium supplemented with B27, GLUTAMAX™ (2 mM), sodium pyruvate (1 mM), penicillin, and streptomycin. The binding of 10 nM AP-PGRN or 10 nM AP was detected as a dark reaction product produced by alkaline phosphatase (AP). Binding was measured as follows. The AP tagged ligand (in NBA) was incubated with the cortical neurons for 1 hr at 4° C., washed three times with HBH buffer, fixed with formaldehyde, and after washing again with HBH the neurons were incubated in a 67° C. oven to inactivate the endogenous AP. The tagged AP was then visualized using AP substrate 5-bromo-4-chloro-3-indolyl phosphate/nitro blue tetrazolium, which results in a dark precipitate. […] The addition of 100 nM Flag-PGRN displaced 10 nM AP-PGRN (FIG. 1C, middle panel).

EC50 (read off the curve) [1] [nM]	Kd [2] [nM]	binding result [3]	binding result [4]	Kd [5] [nM]	binding result [6]	binding result [7]	Binder
~3	~20	no binding (tested: 120 nM)	no binding (tested: 120 nM)	6			AP-PGRN (alkaline phosphatase fused to human progranulin, huPGRN, GenBank Accession No. BC010577) (ligand, Made in HEK293T cells from pAPtag-5; also called AP-PRGN; AP tagged ligand; not shown: alkaline phosphatase (AP) tag of expression vector pAPtag-5) TRCPDGQFCPVACCLDPGGASYSCCRPLLDKWPTTLSRHLGGPCQVDAHCSAGHSCIFTVSGTSSCCPFPEAVACGDGHHCCPRGFHCSADGRSCFQRSGNNSVGAIQCPDSQFECPDFSTCCVMVDGSWGCCPMPQASCCEDRVHCCPHGAFCDLVHTRCITPTGTHPLAKKLPAQRTNRAVALSSSVMCPDARSRCPDGSTCCELPSGKYGCCPMPNATCCSDHLHCCPQDTVCDLIQSKCLSKENATTDLLTKLPAHTVGDVKCDMEVSCPDGYTCCRLQSGAWGCCPFTQAVCCEDHIHCCPAGFTCDTQKGTCEQGPHQVPWMEKAPAHLSLPDPQALKRDVPCDNVSSCPSSDTCCQLTSGEWGCCPIPEAVCCSDHQHCCPQGYTCVAEGQCQRGSEIVAGLEKMPARRASLSHPRDIGCDQHTSCPVGQTCCPSLGGSWACCQLPHAVCCEDRQHCCPAGYTCNVKARSCEKEVVSAQPATFLARSPHVGVKDVECGEGHFCHDNQTCCRDNRQGWACCPYRQGVCCADRRHCCPAGFRCAARGTKCLRREAPRWDAPLRDPALRQLL
					no binding (tested: 20 nM)	no binding (tested: 10 nM)	alkaline-phosphatase (AP) alone (enzyme, UniProt P05187 23-511, looked up, Control for the AP tag) IIPVEEENPDFWNREAAEALGAAKKLQPAQTAAKNLIIFLGDGMGVSTVTAARILKGQKKDKLGPEIPLAMDRFPYVALSKTYNVDKHVPDSGATATAYLCGVKGNFQTIGLSAAARFNQCNTTRGNEVISVMNRAKKAGKSVGVVTTTRVQHASPAGTYAHTVNRNWYSDADVPASARQEGCQDIATQLISNMDIDVILGGGRKYMFRMGTPDPEYPDDYSQGGTRLDGKNLVQEWLAKRQGARYVWNRTELMQASLDPSVTHLMGLFEPGDMKYEIHRDSTLDPSLMEMTEAALRLLSRNPRGFFLFVEGGRIDHGHHESRAYRALTETIMFDDAIERAGQLTSEEDTLSLVTADHSHVFSFGGYPLRGSSIFGLAPGKARDRKAYTVLLYGNGPGYVLKDGARPDVTESESGSPEYRQQSAVPLDEETHAGEDVAVFARGPQAHLVHGVQEQTFIAHVMAFAACLEPYTACDLAPPAGTTDAAHPG
